Test results from US20080119430.
Where a chain is given by its changes, count along the chain named. In names and notes the source's numbering stands.

B1: BNO69 (endogenous protein in HUVECs, knocked down by adenoviral antisense BNO69R) (protein)
chain: MPEDRNSGGCPAGALASTPFIPKTTYRRIKRCFSFRKGIFGQKLEDTVRYEKRYGNRLAPMLVEQCVDFIRQRGLKEEGLFRLPGQANLVKELQDAFDCGEKPSFDSNTDVHTVASLLKLYLRELPEPVIPYAKYEDFLSCAKLLSKEEEAGVKELAKQVKSLPVVNYNLLKYICRFLDEVQSYSGVNKMSVQNLATVFGPNILRPKVEDPLTIMEGTVVVQQLMSVMISKHDCLFPKDAELQSKPQDGVSNNNEIQKKATMGLLQNKENNNTKDSPSRQCSWDKSESPQRSSMNNGSPTALSGSKTNSPKNSVHKLDVSRSPPLMVKKNPAFNKGSGIVTNGSFSSSNAEGLEKTQTTPNGSLQARRSSSLKVSGTKMGTHSVQNGTVRMGILNSDTLGNPTNVRNMSWLPNGYVTLRDNKQKEQAGELGQHNRLSTYDNVHQQFSMMNLDDKQSIDSATWSTSSCEISLPENSNSCRSSTTTCPEQDFFGGNFEDPVLDGPPQDDLSHPRDYESKSDHRSVGGRSSRATSSSDNSETFVGNSSSNHSALHSLVSSLKQEMTKQKIEYESRIKSLEQRNLTLETEMMSLHDELDQERKKFTMIEIKMRNAERAKEDAEKRNDMLQKEMEQFFSTFGELTVEPRRTERGNTIWIQ
B2: BNO69 mutant (R82A) (protein)
chain: B1 chain with R82A

Molecular target: Rho (active Rho-GTP, endogenous in HUVECs)

Row | Protein | fold increase in Rho activity (active Rho-GTP) in HUVECs after BNO69 knockdown with BNO69R, compared to empty vector | fold increase in Rho activity in HUVECs expressing the R82A mutant, compared to empty vector
1 | B1 | 3.1±0.5 fold increase in Rho activity with BNO69R | –
2 | B2 | – | 2.6±0.7 fold increase (n=4 experiments) in Rho activity
